Data from the supplement of paper PMC7125110.
± gives the standard error. For some assays here: Variants at the floor of the assay were thinned out.

B1: glmS ribozyme (parent)
chain: AUAAAAGCGCCAGAACUACAGAAAUGUAGUUGACGAGGAGGAGGUUUAUCGAAUUUUCGGCGGAUGCCUCCAAA

Assays:
Details in all cases: with glucosamine-6-phosphate
glucosamine-6-phosphate [1] = variants of: B1; assay: kcat; higher = faster cleavage; RNA array
Procedure, shortened: (§1)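 In situ transcription by E. coli RNA polymerase produced barcoded ribozyme variants on sequenced MiSeq chips, and a hybridised Cy3 probe tracked them at 37 °C. Glucosamine-6-phosphate was flowed in at 40 μM to 10 mM in HEPES/KCl/Mg(OAc)2 buffer. kcat and KM were taken from weighted Michaelis–Menten fits of kobs values from exponential decay fits.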

glucosamine-6-phosphate [2] = variants of: B1; assay: KM; higher = weaker cofactor use; RNA array
Procedure, shortened: as §1

glucosamine-6-phosphate [3] = variants of: B1; assay: self-cleavage kobs at 40 uM GlcN6P; higher = faster cleavage; RNA array
Procedure, shortened: as §1

glucosamine-6-phosphate [4] = variants of: B1; assay: self-cleavage kobs at 160 uM GlcN6P; higher = faster cleavage; RNA array
Procedure, shortened: as §1

glucosamine-6-phosphate [5] = variants of: B1; assay: self-cleavage kobs at 640 uM GlcN6P; higher = faster cleavage; RNA array
Procedure, shortened: as §1

glucosamine-6-phosphate [6] = variants of: B1; assay: self-cleavage kobs at 2500 uM GlcN6P; higher = faster cleavage; RNA array
Procedure, shortened: as §1

glucosamine-6-phosphate [7] = variants of: B1; assay: self-cleavage kobs at 10000 uM GlcN6P; higher = faster cleavage; RNA array
Procedure, shortened: as §1

Row | Variant | kcat (glucosamine-6-phosphate [1]) [s⁻¹] | KM (glucosamine-6-phosphate [2]) [µM] | self-cleavage kobs at 40 uM GlcN6P (glucosamine-6-phosphate [3]) [s⁻¹] | self-cleavage kobs at 160 uM GlcN6P (glucosamine-6-phosphate [4]) [s⁻¹] | self-cleavage kobs at 640 uM GlcN6P (glucosamine-6-phosphate [5]) [s⁻¹] | self-cleavage kobs at 2500 uM GlcN6P (glucosamine-6-phosphate [6]) [s⁻¹] | self-cleavage kobs at 10000 uM GlcN6P (glucosamine-6-phosphate [7]) [s⁻¹]
1 | U45A C67A C68G | 1.46e-05 ± 7.2e-06 |  |  |  |  |  | 
2 | U46A U55A | 0.00375 ± 0.001 | 2140 ± 820 | 5.91e-05 ± 1.3e-05 | 0.00063 ± 0.00021 | 0.00107 ± 0.00026 | 0.00221 ± 0.00094 | 0.00298 ± 0.00056
3 | G51A C67G | 2e-05 ± 6.5e-06 |  |  |  |  |  | 
4 | C50G U56C | 1.76e-05 ± 2.6e-06 |  |  |  |  |  | 
5 | U45A U56G | 0.0614 ± 0.024 | 3390 ± 1600 | 0.000857 ± 0.00011 | 0.00188 ± 0.00049 | 0.0108 ± 0.0024 | 0.0272 ± 0.0087 | 0.0457 ± 0.011
6 | C50A C61G | 2.25e-05 ± 7e-06 |  |  |  |  |  | 
7 | A48U U55C | 0.000437 ± 6.5e-05 | 2190 ± 650 |  |  | 0.000116 ± 2.5e-05 | 0.000214 ± 3.6e-05 | 0.000378 ± 6.8e-05
8 | A48U U55G | 0.000482 ± 2.4e-05 | 3300 ± 360 |  |  | 7.42e-05 ± 2.3e-05 | 0.000226 ± 5.6e-05 | 0.000359 ± 4.8e-05
9 | U45G A53U | 0.00477 ± 0.00059 | 2170 ± 340 | 9.6e-05 ± 1.4e-05 | 0.000306 ± 5.6e-05 | 0.000953 ± 0.00022 | 0.00274 ± 0.001 | 0.004 ± 0.0007
10 | U47C C70G | 0.000161 ± 3.3e-05 |  |  | 7.93e-05 ± 2.2e-05 | 0.000172 ± 3.5e-05 | 0.00012 ± 3e-05 | 0.000256 ± 0.0001
11 | U46G C50A | < 1e-05 |  |  | < 1e-05 |  |  | 
12 | A48G C68A | 1.35e-05 ± 5e-06 |  | < 1e-05 |  |  |  | 
13 | G44A U56A | 0.00026 ± 6.2e-06 | 2650 ± 150 |  |  | 4.93e-05 ± 1.6e-05 | 0.00013 ± 2.6e-05 | 0.000205 ± 2.9e-05
14 | U49C A53U | < 1e-05 |  |  |  |  |  | 
15 | U46A G60A | < 1e-05 |  |  |  | < 1e-05 |  | 
16 | U47G A48C | 0.000154 ± 1.4e-05 | 2250 ± 640 | < 1e-05 |  |  | 9.31e-05 ± 3e-05 | 0.000124 ± 1.9e-05
17 | A48U U49G | 1.55e-05 ± 3.7e-06 |  | < 1e-05 |  |  |  | 
18 | U49G C58A | 3.25e-05 ± 8.4e-06 | 6150 ± 2700 | < 1e-05 |  |  |  | 
19 | U45G A64G | 0.00935 ± 0.0026 | 2790 ± 990 | 0.000169 ± 2.8e-05 | 0.000411 ± 0.00011 | 0.00161 ± 0.0003 | 0.00451 ± 0.00092 | 0.00759 ± 0.002

Row | Variant | kcat (glucosamine-6-phosphate [1]) [s⁻¹] | KM (glucosamine-6-phosphate [2]) [µM] | self-cleavage kobs at 40 uM GlcN6P (glucosamine-6-phosphate [3]) [s⁻¹] | self-cleavage kobs at 160 uM GlcN6P (glucosamine-6-phosphate [4]) [s⁻¹] | self-cleavage kobs at 640 uM GlcN6P (glucosamine-6-phosphate [5]) [s⁻¹] | self-cleavage kobs at 2500 uM GlcN6P (glucosamine-6-phosphate [6]) [s⁻¹] | self-cleavage kobs at 10000 uM GlcN6P (glucosamine-6-phosphate [7]) [s⁻¹]
20 | U49G A53G | 0.00124 ± 0.00011 | 1440 ± 230 | 3.67e-05 ± 1.3e-05 | 0.000136 ± 2.5e-05 | 0.000361 ± 6.3e-05 | 0.000714 ± 0.00011 | 0.00116 ± 0.00015
21 | U45C C70U | 0.0085 ± 0.0033 | 4580 ± 2200 | 0.000103 ± 1.3e-05 | 0.000303 ± 4.5e-05 | 0.000855 ± 0.00011 | 0.00283 ± 0.00041 | 0.00646 ± 0.00093
22 | U47C C71U | 0.00356 ± 0.00095 | 1310 ± 520 | 0.000124 ± 1.4e-05 | 0.000184 ± 6.7e-05 | 0.00148 ± 0.0002 | 0.00219 ± 0.00045 | 0.00312 ± 0.00038
23 | U47G G51C U57C C68U | 1.54e-05 ± 3.7e-06 |  | < 1e-05 |  |  |  | 
24 | A52C U54A | 1.15e-05 ± 1.5e-06 | 368 ± 130 |  |  |  |  | 
25 | G51A U54C | < 1e-05 |  |  |  |  |  | 
26 | A53U U69G | 6.8e-05 ± 1.2e-05 |  |  | 6.15e-05 ± 1.2e-05 | 4.69e-05 ± 1.2e-05 | 8.29e-05 ± 9.4e-06 | 4.84e-05 ± 1.2e-05
27 | A53U U57C | 0.000173 ± 5.9e-06 | 1360 ± 210 |  |  |  | 0.000115 ± 2.1e-05 | 0.000151 ± 1.8e-05
28 | G44C A53C | 6.93e-05 ± 2.5e-06 | 2650 ± 300 |  |  |  | 3.4e-05 ± 1e-05 | 5.46e-05 ± 9.3e-06
29 | U46A A53U | 0.00158 ± 0.00035 | 1520 ± 540 | 5.78e-05 ± 1.1e-05 | 0.000161 ± 3.2e-05 | 0.000394 ± 5.6e-05 | 0.000952 ± 0.00012 | 0.00158 ± 0.00025
30 | C50A C67U | 1.84e-05 ± 4e-06 |  |  |  |  |  | 
31 | U45G U56G | 0.00528 ± 0.00075 | 2490 ± 520 | 8.78e-05 ± 1.3e-05 | 0.000245 ± 6.5e-05 | 0.0011 ± 0.00017 | 0.0033 ± 0.00052 | 0.00403 ± 0.00047
32 | U47G A52U | 0.000286 ± 1.4e-05 | 1950 ± 180 |  |  | 6.99e-05 ± 7.7e-06 | 0.000169 ± 2e-05 | 0.000234 ± 2.6e-05
33 | C50G U54G | 4.74e-05 ± 1.5e-05 |  |  | 7.22e-05 ± 1.2e-05 | 4.18e-05 ± 1.1e-05 | 3.85e-05 ± 1.5e-05 | 
34 | A48G U57C | 1.23e-05 ± 2.5e-06 |  |  |  |  |  | 
35 | G44A G66A | 0.000681 ± 0.00022 |  |  | 4.37e-05 ± 1.7e-05 | 0.000259 ± 4.6e-05 | 0.000848 ± 0.00022 | 0.000527 ± 0.0001
36 | A52G C70G | 6.89e-05 ± 3.6e-06 | 65.2 ± 26 |  | 5.53e-05 ± 1e-05 | 5.76e-05 ± 1.2e-05 | 6.23e-05 ± 7.9e-06 | 7.2e-05 ± 6.7e-06
37 | C50A C58G | < 1e-05 |  |  |  |  |  | < 1e-05
